The supplement of paper PMC10065799, “High-throughput profiling of sequence recognition by tyrosine kinases and SH2 domains using bacterial peptide display” (eLife, 2023)

What was measured:
[1] = tested on: c-Src; assay: phosphorylation enrichment, bacterial display (enrichment ratio); higher = better substrate or ligand; peptides without Tyr show the background
[2] = biological target: Hck (UniProt P08631); assay: as above
[3] = biological target: EPHB1 (UniProt P54762); assay: as above
[4] = biological target: EPHB2 (UniProt P29323); assay: as above
[5] = tested on: c-Abl (mouse); assay: as above
[6] = biological target: Fes (UniProt P07332); assay: as above
[7] = biological target: FGFR1 (UniProt P11362); assay: as above
FGFR1, sequence (P11362 whole entry, looked up): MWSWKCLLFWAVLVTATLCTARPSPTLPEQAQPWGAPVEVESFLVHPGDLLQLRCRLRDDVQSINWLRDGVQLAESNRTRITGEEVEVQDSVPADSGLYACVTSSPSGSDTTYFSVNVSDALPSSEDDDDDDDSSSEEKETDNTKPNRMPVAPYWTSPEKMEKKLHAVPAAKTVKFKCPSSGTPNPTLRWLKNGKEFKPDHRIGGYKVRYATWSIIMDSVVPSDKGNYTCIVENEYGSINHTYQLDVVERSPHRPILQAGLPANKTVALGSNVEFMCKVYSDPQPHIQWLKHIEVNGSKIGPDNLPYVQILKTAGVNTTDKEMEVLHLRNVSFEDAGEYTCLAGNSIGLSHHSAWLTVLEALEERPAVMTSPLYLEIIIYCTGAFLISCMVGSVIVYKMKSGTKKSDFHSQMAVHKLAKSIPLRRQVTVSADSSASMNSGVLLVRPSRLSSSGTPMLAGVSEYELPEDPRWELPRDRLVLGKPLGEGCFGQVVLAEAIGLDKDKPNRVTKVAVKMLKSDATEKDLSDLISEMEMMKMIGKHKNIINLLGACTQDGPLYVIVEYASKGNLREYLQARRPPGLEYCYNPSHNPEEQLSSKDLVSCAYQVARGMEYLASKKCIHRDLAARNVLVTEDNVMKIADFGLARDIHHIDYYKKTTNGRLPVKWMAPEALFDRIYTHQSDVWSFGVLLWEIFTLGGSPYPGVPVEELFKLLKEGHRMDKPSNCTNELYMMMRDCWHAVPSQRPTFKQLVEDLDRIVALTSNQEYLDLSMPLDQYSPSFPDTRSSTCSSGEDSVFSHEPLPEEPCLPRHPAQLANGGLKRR

[8] = biological target: Fyn (UniProt P06241); assay: as above
Fyn, sequence (P06241 whole entry, looked up): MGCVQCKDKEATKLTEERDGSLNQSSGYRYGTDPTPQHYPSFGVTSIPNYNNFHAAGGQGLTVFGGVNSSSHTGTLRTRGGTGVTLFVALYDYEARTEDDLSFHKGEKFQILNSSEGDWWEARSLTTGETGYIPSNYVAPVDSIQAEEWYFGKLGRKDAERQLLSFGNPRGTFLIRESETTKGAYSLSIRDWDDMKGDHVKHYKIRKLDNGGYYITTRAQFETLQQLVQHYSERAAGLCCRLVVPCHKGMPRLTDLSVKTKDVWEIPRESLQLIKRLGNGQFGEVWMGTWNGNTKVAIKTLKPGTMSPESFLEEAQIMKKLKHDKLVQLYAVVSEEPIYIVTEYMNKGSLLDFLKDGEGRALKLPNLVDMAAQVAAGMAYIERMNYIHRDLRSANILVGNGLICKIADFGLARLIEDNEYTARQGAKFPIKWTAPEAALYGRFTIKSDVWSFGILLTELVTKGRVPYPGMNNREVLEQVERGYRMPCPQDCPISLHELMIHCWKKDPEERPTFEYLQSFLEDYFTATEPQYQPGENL

[9] = tested on: Fer (mouse); assay: as above
[10] = biological target: Jak2 (UniProt O60674); assay: as above
Jak2, sequence (O60674 whole entry, looked up): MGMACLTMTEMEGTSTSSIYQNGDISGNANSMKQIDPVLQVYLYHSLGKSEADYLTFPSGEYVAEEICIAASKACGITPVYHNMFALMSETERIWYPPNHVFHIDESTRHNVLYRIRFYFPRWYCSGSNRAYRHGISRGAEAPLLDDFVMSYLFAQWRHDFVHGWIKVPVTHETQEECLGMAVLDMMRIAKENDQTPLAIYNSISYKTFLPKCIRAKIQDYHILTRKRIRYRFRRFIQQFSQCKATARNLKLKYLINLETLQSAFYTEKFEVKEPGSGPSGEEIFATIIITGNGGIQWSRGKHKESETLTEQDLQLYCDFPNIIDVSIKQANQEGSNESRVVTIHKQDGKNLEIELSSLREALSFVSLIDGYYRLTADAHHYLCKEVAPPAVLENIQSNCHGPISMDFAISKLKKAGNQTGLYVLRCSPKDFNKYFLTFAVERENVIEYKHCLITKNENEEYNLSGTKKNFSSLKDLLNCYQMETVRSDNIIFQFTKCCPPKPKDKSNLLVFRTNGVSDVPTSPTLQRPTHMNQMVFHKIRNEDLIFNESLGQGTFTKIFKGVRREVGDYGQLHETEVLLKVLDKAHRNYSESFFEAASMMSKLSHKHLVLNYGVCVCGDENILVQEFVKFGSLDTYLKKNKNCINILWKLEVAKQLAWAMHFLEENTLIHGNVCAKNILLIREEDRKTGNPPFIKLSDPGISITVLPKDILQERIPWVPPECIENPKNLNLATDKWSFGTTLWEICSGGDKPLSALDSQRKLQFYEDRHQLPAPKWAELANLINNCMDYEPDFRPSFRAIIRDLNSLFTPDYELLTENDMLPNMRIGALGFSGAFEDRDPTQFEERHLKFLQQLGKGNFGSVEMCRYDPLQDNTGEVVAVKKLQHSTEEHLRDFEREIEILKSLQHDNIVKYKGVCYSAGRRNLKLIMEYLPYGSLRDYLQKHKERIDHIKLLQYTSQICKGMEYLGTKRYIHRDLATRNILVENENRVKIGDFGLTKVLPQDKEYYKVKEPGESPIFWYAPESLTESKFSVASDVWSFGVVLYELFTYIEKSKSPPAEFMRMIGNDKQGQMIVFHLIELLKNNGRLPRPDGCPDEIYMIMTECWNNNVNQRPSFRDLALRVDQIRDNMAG

[11] = tested on: AncSZ; assay: as above
[12] = biological target: MERTK (UniProt Q12866); assay: as above
MERTK, sequence (Q12866 whole entry, looked up): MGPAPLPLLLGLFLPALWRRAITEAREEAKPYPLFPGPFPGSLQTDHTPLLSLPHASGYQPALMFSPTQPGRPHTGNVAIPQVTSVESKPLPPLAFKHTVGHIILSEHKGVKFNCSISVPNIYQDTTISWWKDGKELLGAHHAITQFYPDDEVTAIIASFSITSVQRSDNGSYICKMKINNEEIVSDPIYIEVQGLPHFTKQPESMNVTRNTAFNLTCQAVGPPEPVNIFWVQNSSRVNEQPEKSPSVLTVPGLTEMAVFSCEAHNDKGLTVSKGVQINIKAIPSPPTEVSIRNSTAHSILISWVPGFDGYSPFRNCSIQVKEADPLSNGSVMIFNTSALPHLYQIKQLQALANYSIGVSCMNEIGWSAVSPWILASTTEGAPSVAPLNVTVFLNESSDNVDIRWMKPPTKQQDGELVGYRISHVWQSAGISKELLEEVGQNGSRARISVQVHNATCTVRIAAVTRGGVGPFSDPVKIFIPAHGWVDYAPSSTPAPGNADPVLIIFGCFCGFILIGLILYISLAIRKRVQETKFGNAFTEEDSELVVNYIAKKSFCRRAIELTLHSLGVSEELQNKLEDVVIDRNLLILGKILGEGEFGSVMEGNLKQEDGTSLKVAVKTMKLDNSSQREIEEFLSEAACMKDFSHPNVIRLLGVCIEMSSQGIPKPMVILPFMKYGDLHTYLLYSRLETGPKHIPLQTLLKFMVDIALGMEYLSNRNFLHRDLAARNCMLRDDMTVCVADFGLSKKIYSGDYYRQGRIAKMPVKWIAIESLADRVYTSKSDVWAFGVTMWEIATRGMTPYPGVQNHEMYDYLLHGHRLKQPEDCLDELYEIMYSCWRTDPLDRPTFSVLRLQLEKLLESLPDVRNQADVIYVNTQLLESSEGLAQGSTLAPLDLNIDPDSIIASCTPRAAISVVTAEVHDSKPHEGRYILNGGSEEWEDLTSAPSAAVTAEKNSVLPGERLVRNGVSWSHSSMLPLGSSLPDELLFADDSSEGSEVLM

[13] = biological target: FGFR3 (UniProt P22607); assay: as above
[14] = biological target: Grb2 SH2 (UniProt P62993); assay: SH2 binding enrichment of the phosphorylated peptide, bacterial display (enrichment ratio); higher = better substrate or ligand; peptides without Tyr show the background
[15] = biological target: SHP2-C SH2; assay: as above
[16] = biological target: c-Src SH2; assay: as above
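For SH2 binding enrichment of the phosphorylated peptide, bacterial display in this document: peptide library displayed on the E. coli surface as eCPX fusions, selected cells deep-sequenced, score is each peptide's frequency after selection divided by its frequency in the input.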
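For phosphorylation enrichment, bacterial display in this document: 11-residue human phosphosite peptides and single-mutation variants displayed on the E. coli surface, counted by deep sequencing, each peptide's frequency after selection divided by its frequency in the unselected input library; frequency after pTyr selection over input frequency; kinase dosed for 20-30% of maximal phosphorylation in three min.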

EPHB1, sequence (P54762 whole entry, looked up): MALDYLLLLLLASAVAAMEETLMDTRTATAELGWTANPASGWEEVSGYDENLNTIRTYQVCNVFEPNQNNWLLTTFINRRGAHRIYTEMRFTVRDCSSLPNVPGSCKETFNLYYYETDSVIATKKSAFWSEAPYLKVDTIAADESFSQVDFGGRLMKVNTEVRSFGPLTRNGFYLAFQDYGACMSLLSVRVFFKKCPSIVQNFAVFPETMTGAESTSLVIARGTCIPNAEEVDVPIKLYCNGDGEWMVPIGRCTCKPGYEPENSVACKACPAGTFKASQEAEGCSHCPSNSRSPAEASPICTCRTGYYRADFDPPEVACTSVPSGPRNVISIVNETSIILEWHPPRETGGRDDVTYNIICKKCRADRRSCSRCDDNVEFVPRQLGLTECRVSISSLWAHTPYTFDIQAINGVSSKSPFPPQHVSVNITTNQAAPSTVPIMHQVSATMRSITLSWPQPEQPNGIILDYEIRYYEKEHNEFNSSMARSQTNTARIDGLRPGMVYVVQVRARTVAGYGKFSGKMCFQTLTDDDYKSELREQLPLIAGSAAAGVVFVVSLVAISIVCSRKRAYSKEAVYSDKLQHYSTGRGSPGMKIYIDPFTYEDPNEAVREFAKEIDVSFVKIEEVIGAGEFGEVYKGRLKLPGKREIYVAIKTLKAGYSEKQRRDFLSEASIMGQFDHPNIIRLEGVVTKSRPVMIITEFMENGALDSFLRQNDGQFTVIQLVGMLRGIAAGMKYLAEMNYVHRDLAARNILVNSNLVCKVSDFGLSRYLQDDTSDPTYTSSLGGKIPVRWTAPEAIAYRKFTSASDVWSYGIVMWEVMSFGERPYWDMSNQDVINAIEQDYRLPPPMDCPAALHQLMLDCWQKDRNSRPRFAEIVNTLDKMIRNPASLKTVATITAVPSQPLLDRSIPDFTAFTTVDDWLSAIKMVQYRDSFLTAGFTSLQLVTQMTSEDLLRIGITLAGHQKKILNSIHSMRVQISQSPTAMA
Hck, sequence (P08631 whole entry, looked up): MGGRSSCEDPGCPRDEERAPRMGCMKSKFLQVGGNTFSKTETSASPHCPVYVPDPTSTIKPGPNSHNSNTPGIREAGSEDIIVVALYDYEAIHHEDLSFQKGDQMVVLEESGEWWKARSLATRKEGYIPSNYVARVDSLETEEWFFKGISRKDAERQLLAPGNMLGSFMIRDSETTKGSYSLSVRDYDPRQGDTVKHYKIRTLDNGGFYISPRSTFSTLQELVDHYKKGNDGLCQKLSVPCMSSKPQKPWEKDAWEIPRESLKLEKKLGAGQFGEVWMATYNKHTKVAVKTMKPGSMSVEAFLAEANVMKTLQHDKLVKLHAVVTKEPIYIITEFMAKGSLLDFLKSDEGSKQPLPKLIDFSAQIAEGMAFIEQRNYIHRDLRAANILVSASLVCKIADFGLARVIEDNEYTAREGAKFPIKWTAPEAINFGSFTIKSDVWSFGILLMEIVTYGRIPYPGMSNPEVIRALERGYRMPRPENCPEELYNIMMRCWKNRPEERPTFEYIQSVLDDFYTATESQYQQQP

Row | SH2 binding enrichment [14] | SH2 binding enrichment [15] | SH2 binding enrichment [16] | Sequence | phosphorylation enrichment [1] | phosphorylation enrichment [2] | phosphorylation enrichment [3] | phosphorylation enrichment [4] | phosphorylation enrichment [5] | phosphorylation enrichment [6] | phosphorylation enrichment [7] | phosphorylation enrichment [8] | phosphorylation enrichment [9] | phosphorylation enrichment [10] | phosphorylation enrichment [11] | phosphorylation enrichment [12] | phosphorylation enrichment [13]
1 | 0.685 | 0.529 | 0.632 | SSYDTYHLSRE [KIR3DL2_Y253_I252T] | 3.69 | 4.59 | 0.451 | 0.841 | 0.657 | 0.713 | 0.6 | 6.54 | 0.457 | 0.527 | 0.709 | 0.583 | 0.569
2 | 1.04 | 0.69 | 0.624 | TTGLIYIGSHD [AASDH_Y870] | 0.408 | 0.46 | 0.686 | 0.565 | 0.488 | 0.759 | 0.445 | 0.375 | 0.424 | 0.715 | 0.726 | 0.323 | 0.79
3 | 0.876 | 0.519 | 0.456 | PVDVAYRRGYF [PLEC_Y2967] | 0.361 | 0.587 | 0.385 | 0.577 | 0.743 | 0.661 | 0.565 | 0.642 | 0.601 | 0.556 | 0.867 | 0.399 | 0.588
4 | 0.793 | 0.567 | 0.476 | FTGDIYSSSNL [LZTR1_Y141_N143S_YF] | 4.35 | 5.66 | 0.782 | 1.03 | 2.35 | 0.652 | 0.494 | 5.8 | 2.31 | 0.588 | 0.748 | 1.7 | 0.588
5 | 0.869 | 1.65 | 0.545 | LSGFGYRLSDQ [PDCD6_Y124] | 0.558 | 0.444 | 0.64 | 0.502 | 0.787 | 0.977 | 0.787 | 0.731 | 0.449 | 1.09 | 1.02 | 0.474 | 0.76
6 | 0.895 | 1 | 0.681 | TTPGPHRSIFF [MPG_Y71_Y71H_YF] | 0.303 | 0.355 | 0.41 | 0.386 | 0.542 | 0.514 | 0.353 | 0.398 | 0.328 | 0.449 | 0.502 | 0.376 | 0.41
7 | 0.994 | 0.57 | 0.521 | VDDEIYYFRKP [PBRM1_Y1289] | 6.81 | 8.76 | 0.871 | 0.84 | 7.44 | 1.39 | 6.49 | 8.84 | 1.29 | 1.35 | 2.94 | 4.89 | 5.81
8 | 1.38 | 1.07 | 1.18 | LNWIYYKDQTG [RS1_Y166] | 1.06 | 1.35 | 1.58 | 1.35 | 1.13 | 2.51 | 1.4 | 1.32 | 0.888 | 2.21 | 2.25 | 0.787 | 2
9 | 0.911 | 0.712 | 1.6 | TGDRPYVCPFD [YY1_Y383] | 0.456 | 0.464 | 0.474 | 0.46 | 0.706 | 0.932 | 0.59 | 0.509 | 0.431 | 0.653 | 1.04 | 0.481 | 0.635
10 | 0.84 | 0.658 | 0.428 | SGVNKYSTAFG [GJB3_Y16] | 0.434 | 0.409 | 0.375 | 0.384 | 0.461 | 0.614 | 0.4 | 0.437 | 0.394 | 0.604 | 0.613 | 0.425 | 0.454
11 | 0.86 | 0.708 | 0.594 | KFRREYILSLE [GPC3_Y299_W296R_YF] | 0.5 | 0.474 | 0.551 | 0.586 | 0.601 | 0.772 | 0.518 | 0.518 | 0.442 | 0.61 | 0.786 | 0.455 | 0.466
12 | 1.12 | 0.851 | 0.667 | GEKKAYVRLAP [RPL23A_Y137] | 0.296 | 0.337 | 0.363 | 0.323 | 0.628 | 0.606 | 0.425 | 0.37 | 0.398 | 0.468 | 0.548 | 0.373 | 0.43
13 | 2.53 | 1.58 | 1.41 | LLLLFCVVRYC [MPZ_Y177_Y177C] | 2.84 | 2.16 | 2.47 | 2.48 | 4.58 | 2.07 | 3.08 | 1.78 | 1.14 | 3.14 | 3.01 | 2.94 | 2.14
14 | 0.956 | 0.902 | 0.581 | SVVVPHEPPEV [TP53_Y220_Y220H] | 0.396 | 0.46 | 0.51 | 0.46 | 0.703 | 0.949 | 0.53 | 0.466 | 0.538 | 0.755 | 0.763 | 0.41 | 0.696
15 | 0.805 | 0.631 | 1.24 | KSPDSYQKILL [ATM_Y1415] | 0.429 | 0.395 | 0.397 | 0.437 | 0.569 | 0.801 | 0.488 | 0.372 | 0.393 | 0.712 | 0.55 | 0.437 | 0.451
16 | 0.783 | 0.55 | 0.481 | EASGIYVKSVI [PATJ_Y396_I400V] | 0.462 | 0.501 | 0.543 | 0.465 | 0.716 | 1.1 | 0.47 | 0.433 | 0.481 | 0.97 | 0.958 | 0.366 | 0.741

Row | SH2 binding enrichment [14] | SH2 binding enrichment [15] | SH2 binding enrichment [16] | Sequence | phosphorylation enrichment [1] | phosphorylation enrichment [2] | phosphorylation enrichment [3] | phosphorylation enrichment [4] | phosphorylation enrichment [5] | phosphorylation enrichment [6] | phosphorylation enrichment [7] | phosphorylation enrichment [8] | phosphorylation enrichment [9] | phosphorylation enrichment [10] | phosphorylation enrichment [11] | phosphorylation enrichment [12] | phosphorylation enrichment [13]
17 | 0.851 | 1.11 | 3.68 | STASGYSDVTD [DTX2_Y425] | 0.358 | 0.449 | 0.448 | 0.464 | 0.61 | 0.84 | 0.497 | 0.447 | 0.398 | 0.661 | 0.721 | 0.355 | 0.487
18 | 0.939 | 0.725 | 0.469 | ELTSKYRGGGG [HBA1_Y141_V136E] | 0.434 | 0.422 | 0.412 | 0.385 | 0.471 | 0.573 | 0.333 | 0.353 | 0.313 | 0.678 | 0.515 | 0.503 | 0.411
19 | 0.978 | 0.594 | 0.533 | NFFEFYVDDPP [GCHFR_Y48_YF] | 0.575 | 0.499 | 0.704 | 0.621 | 0.836 | 1.28 | 0.741 | 0.569 | 0.557 | 1.12 | 1.44 | 0.531 | 0.925
20 | 0.682 | 0.612 | 0.595 | PFIDSYEKDVA [PGM1_Y521_L516P_YF] | 0.375 | 0.606 | 0.574 | 0.708 | 0.51 | 1.04 | 0.592 | 0.656 | 0.35 | 0.594 | 1.07 | 0.378 | 0.636
21 | 0.769 | 0.729 | 0.447 | QDIMAYRGREV [BCL6_Y157] | 0.531 | 0.448 | 0.52 | 0.553 | 0.536 | 1.04 | 0.565 | 0.632 | 0.616 | 0.937 | 1.1 | 0.599 | 0.717
22 | 1.03 | 0.853 | 0.705 | VKKKLDEEIDQ [CYP17A1_Y329_Y329D] | 0.441 | 0.488 | 0.505 | 0.555 | 0.693 | 0.792 | 0.578 | 0.483 | 0.422 | 0.782 | 0.839 | 0.523 | 0.579
23 | 1.01 | 1.05 | 1.05 | RHCSGYVLIAM [EFR3A_Y73_R70C] | 0.517 | 0.472 | 0.51 | 0.403 | 0.575 | 0.879 | 0.596 | 0.376 | 0.501 | 0.846 | 0.885 | 0.268 | 0.669
24 | 0.731 | 0.575 | 3.09 | EIIPFYGMSTF [FNDC3B_Y175_YF] | 0.782 | 0.844 | 0.532 | 0.667 | 0.97 | 0.911 | 0.461 | 0.687 | 0.897 | 0.879 | 0.955 | 0.901 | 0.524
25 | 0.751 | 0.961 | 0.77 | FKELVYETVRV [FSHB_Y76] | 8.98 | 12.4 | 10.2 | 9.8 | 18 | 6.92 | 3.22 | 11.2 | 18.5 | 0.894 | 2.11 | 9.94 | 1.57
26 | 1.33 | 0.787 | 0.778 | FHIDHYLGKEM [G6PD_Y202_R198H_YF] | 0.334 | 0.503 | 0.438 | 0.553 | 0.415 | 0.688 | 0.53 | 0.39 | 0.342 | 0.467 | 0.556 | 0.331 | 0.481
27 | 0.676 | 0.676 | 0.469 | WSFNLYDINKD [KCNIP3_Y174_A170S] | 0.88 | 1.29 | 0.894 | 0.875 | 0.68 | 1.45 | 0.566 | 1.07 | 1.01 | 1.12 | 1.36 | 0.796 | 0.819
28 | 0.776 | 0.694 | 0.608 | SSFDIYHLSRE [KIR3DL2_Y253_YF] | 7.22 | 9.84 | 0.975 | 0.762 | 0.807 | 1.02 | 1.44 | 12.1 | 0.788 | 0.817 | 1.12 | 2.6 | 1.29
29 | 0.912 | 0.837 | 0.796 | AVISVYDLVAF [PSEN1_Y256_V261F] | 5.87 | 7.4 | 9.68 | 9.61 | 0.887 | 2.23 | 0.72 | 8.21 | 16 | 1.08 | 1.37 | 8.85 | 0.893
30 | 1.08 | 0.596 | 0.524 | GREFIYVDPMQ [PDGFRA_Y574_H570R_YF] | 1.36 | 1.2 | 3.28 | 5.79 | 3.31 | 0.729 | 7.2 | 0.906 | 0.589 | 0.703 | 1.03 | 2 | 4.31
31 | 0.79 | 0.622 | 0.41 | FPDFVYKRIKA [DPYSL2_Y479] | 0.344 | 0.443 | 0.421 | 0.468 | 0.362 | 0.773 | 0.495 | 0.494 | 0.424 | 0.793 | 0.682 | 0.377 | 0.543
32 | 1.06 | 0.782 | 0.683 | MPQNEYIELHC [NSA2_Y6_R11C] | 0.625 | 0.626 | 1.2 | 0.862 | 0.658 | 1.2 | 3.95 | 0.615 | 0.557 | 0.939 | 1.39 | 0.478 | 2.58

Row | Sequence | SH2 binding enrichment [14] | SH2 binding enrichment [15] | SH2 binding enrichment [16] | phosphorylation enrichment [1] | phosphorylation enrichment [2] | phosphorylation enrichment [3] | phosphorylation enrichment [4] | phosphorylation enrichment [5] | phosphorylation enrichment [6] | phosphorylation enrichment [7] | phosphorylation enrichment [8] | phosphorylation enrichment [9] | phosphorylation enrichment [10] | phosphorylation enrichment [11] | phosphorylation enrichment [12] | phosphorylation enrichment [13]
33 | GKSDPYHATSG [GJA1_Y247] | 0.761 | 0.588 | 0.518 | 0.404 | 0.365 | 0.355 | 0.349 | 0.527 | 0.508 | 0.346 | 0.386 | 0.381 | 0.519 | 0.426 | 0.354 | 0.402
